Assay [1] concerns the target fusion protein of the human transferrin receptor extracellular domain linked to human IgG1 Fc (human) (UniProt P02786). Nature of the assay: ELISA, coated human TfR ECD-Fc, pH 5.5.
Assay [2] has the same target. The assay can be described thus: ELISA, coated human TfR ECD-Fc, pH 5.5 against pH 7.4.
The target is the same in assay [3]. Nature of the assay: ELISA, coated human TfR ECD-Fc, pH 7.4.

Our source for the EC50 and ratio EC50 pH 5.5/EC50 pH 7.4 values is patent US20170174776A1.

Sequence of fusion protein of the human transferrin receptor extracellular domain linked to human IgG1 Fc (human) (P02786 89-760): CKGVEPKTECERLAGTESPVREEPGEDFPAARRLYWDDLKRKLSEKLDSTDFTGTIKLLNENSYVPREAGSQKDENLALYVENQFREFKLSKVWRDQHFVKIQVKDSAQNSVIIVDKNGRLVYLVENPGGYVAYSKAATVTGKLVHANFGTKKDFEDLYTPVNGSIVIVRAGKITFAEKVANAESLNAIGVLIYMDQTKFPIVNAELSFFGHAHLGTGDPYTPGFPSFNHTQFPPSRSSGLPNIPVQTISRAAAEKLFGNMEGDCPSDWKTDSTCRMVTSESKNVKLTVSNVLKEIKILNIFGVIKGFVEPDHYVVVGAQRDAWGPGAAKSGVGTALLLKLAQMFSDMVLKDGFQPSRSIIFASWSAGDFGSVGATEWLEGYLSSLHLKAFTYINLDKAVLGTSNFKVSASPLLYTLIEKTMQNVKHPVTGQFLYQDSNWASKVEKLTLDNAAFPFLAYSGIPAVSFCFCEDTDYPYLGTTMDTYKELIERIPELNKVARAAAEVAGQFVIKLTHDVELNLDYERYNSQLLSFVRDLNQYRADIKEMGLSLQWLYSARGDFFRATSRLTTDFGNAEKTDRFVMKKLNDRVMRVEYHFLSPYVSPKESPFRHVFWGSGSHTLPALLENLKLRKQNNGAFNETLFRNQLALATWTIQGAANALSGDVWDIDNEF

mAb MEM-189 (antibody): the figures for the concentration giving a half-maximal response (EC50) in assay [1] and in assay [3] were more than 1 mg/L and 0.0642 mg/L, respectively. In addition, the ratio EC50 pH 5.5/EC50 pH 7.4 in assay [2] is more than 15.6.

As to mAb OKT-9 (antibody), the EC50 was found to be 0.691 mg/L in assay [1] and 0.065 mg/L in assay [3]. Further, the ratio EC50 pH 5.5/EC50 pH 7.4 in assay [2] worked out at 10.6.

In assay [1], mAb MEM-75 (antibody) had a 50% effective concentration (EC50) of 0.59 mg/L.
